Two molecules from patent US20060183678A1 (Novartis, published 2006) can be followed below.

The target of test [1] is T1, rat NiG-D6 (rat, UniProt Q9JK11 763-975).
T1 construct: pET28 construct from bacteria
T1 sequence: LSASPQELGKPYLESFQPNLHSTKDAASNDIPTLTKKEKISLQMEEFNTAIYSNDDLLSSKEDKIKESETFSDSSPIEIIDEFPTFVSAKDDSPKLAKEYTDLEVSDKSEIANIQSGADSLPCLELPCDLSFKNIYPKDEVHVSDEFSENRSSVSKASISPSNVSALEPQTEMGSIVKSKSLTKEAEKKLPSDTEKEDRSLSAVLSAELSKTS
The test is described as follows: ELISA, fragment coated on plate. As for the experimental part: (§1) Greiner 96 well PS plates (#655161) are coated with 0.4-2 ug/ml Nogo protein fragments in PBS (100ul/well) covered and incubated 4 hours at room temperature. Plates are flicked and refilled with 200 ul/well blocking buffer (PBS+2% BSA), covered and incubated. 1 h at RT or overnight at 4° C., then washed 4 times with water and PBS. Different concentrations of mouse 11C7 mAb or 11C7 Fab are diluted in PBS+2% BSA (100 u/well), and incubated 2 h at RT or overnight at 4° C. Wash step is repeated and Goat anti-mouse IgG conjugated with horse radish peroxidase (HRP) at a dilution of 1:5000 (ICN #55550) in PBS/0.1% BSA/0.1% Nonidet 40 (100 uVwell) is added and incubated. 2h at RT or overnight at 4° C. and wash step is repeated. HRP reaction is started by adding 100 uvwell BM blue POD (Roche #1484281) and incubafed in the dark at RT for 15 minutes. H2SO4 50 ul/well 1 M is added to stop HRP substrate reaction and the optical density is determinated using a microplate reader (Packard Spectra Count) set to 450 nm.

Test [2] has as its target T2, Nogo-66 (rat, UniProt Q9JK11 1019-1083).
T2 construct: also called Nogo-66 fragment
T2 sequence: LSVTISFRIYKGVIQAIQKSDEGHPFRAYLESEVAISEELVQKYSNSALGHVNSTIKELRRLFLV
In words: ELISA, fragment coated on plate. As for the experimental part:
as §1
(In an ELISA, binding on a coated surface is turned into a signal by an enzyme label.)

Test [3] deals with T3, human NiG (human, UniProt Q9NQC3 186-1004).
T3 construct: Expressed in E. coli from pET28a-hNiG; also called hNiG; recombinant human NIG; not shown: N-terminal His- and T7-tag from pET28a
T3 sequence: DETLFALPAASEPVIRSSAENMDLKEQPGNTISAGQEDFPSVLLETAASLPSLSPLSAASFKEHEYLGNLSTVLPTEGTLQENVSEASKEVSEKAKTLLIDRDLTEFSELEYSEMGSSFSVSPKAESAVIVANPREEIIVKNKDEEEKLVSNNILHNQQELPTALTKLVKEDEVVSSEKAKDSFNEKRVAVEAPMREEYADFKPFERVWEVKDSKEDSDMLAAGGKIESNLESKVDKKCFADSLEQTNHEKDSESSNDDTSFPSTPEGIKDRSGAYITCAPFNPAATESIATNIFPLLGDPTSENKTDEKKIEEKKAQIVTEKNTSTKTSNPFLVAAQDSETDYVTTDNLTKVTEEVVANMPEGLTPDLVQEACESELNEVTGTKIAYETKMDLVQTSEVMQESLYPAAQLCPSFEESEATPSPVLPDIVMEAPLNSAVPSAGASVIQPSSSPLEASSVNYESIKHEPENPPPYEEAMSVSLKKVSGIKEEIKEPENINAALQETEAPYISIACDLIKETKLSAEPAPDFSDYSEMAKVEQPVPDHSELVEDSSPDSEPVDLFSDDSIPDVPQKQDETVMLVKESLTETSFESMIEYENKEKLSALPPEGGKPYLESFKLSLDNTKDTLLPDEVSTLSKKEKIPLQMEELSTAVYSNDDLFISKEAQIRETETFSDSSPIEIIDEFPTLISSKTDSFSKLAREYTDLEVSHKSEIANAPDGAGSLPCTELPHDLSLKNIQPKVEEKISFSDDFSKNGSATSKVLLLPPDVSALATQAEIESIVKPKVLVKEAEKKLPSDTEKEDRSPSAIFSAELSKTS
The test is described as follows: SPR (BIAcore 2000), NiG amine-coupled on CM5 chip, antibody injected. On the procedure:
(§2) The affinity of the mouse 11C7 mAb and of the 11C7 Fab are measured by surface plasmon resonance (SPR) using a BIAcore 2000 optical biosensor (Biacore, Uppsala, Sweden) according to the manufacture's instructions (see FIG. 2). Recombinant human, mouse, and rat NIG are covalently attached to three separate flow cells of a CM5 sensor chip using amine-coupling chemistry. Briefly; the carboxymethlyladed dextran matrix is activated by injecting 35 ul of a solution containing 0.025M NHS and 0.1M EDC. […] The deactivation of the remaining NHS-ester group is performed by injection of 35 ul of 1M ethanolamine hydrochloride (pH 8.5). The surface of the sensor chip is regenerated by injecting 5 ul 0.1M HCl. […] After each injection the sensor chip surface is regenerated with the injection of 10 ul 0.1M HCl without loss of binding activity on the surface. The kinetic constants, ka and kd and the affinity constants KA and KD are evaluated using the BIAevaluations 3.0 software supplied by the manufacturer.
(§3) Affinity measurement in BIAcore: The kinietc and the affinity binding constants of the mouse 11C7 mAb and the 11C7 derived monovalent Fab fragment to recombinat NogoA are measured in real time using surface plasmon resonance (SPR) technology (Biacore). For this analysis recombinant human, mouse and rat NIGs are coupled on three independent sensor chip surfaces and different concentrations of the antibodies are injected. Kinetic parameters of the binding interactions are derived from the sensorgrams by non-linear curve fitting. […] The lower affinity of the Fab fragment results from a decrease of both kinetic constants, association and dissociation (ka, kd).
In general terms: SPR reads the build-up and loss of mass on a sensor chip optically.

For test [4], the target named is T4, mouse NiG (mouse, UniProt Q99P72 188-974, limits assumed).
T4 construct: domain: NiG-exon3; also called mNiG-exon3; mouse NiG-exon3
T4 sequence (looked up): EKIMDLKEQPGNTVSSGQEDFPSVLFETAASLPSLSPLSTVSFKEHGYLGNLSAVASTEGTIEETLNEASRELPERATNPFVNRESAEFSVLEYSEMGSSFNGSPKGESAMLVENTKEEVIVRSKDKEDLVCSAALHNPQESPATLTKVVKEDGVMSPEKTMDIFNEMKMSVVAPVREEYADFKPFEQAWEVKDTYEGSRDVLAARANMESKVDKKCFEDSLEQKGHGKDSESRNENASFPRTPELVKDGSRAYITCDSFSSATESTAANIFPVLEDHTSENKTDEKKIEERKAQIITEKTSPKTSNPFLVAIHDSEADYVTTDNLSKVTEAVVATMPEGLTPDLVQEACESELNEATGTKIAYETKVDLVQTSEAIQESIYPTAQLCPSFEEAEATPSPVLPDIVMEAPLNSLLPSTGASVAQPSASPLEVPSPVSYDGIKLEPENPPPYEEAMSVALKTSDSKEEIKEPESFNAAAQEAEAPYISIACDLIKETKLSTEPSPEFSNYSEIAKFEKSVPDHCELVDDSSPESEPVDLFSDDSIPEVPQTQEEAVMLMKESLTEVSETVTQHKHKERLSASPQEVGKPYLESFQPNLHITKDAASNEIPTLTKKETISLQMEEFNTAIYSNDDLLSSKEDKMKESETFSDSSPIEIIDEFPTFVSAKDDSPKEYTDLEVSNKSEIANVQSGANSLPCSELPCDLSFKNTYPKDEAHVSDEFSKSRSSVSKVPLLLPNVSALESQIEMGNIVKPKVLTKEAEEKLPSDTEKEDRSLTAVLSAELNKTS
The description is as above. As for the experimental part:
as §2, §3

Test [5] deals with T5, rat NiG (rat, UniProt Q9JK11 174-979).
T5 construct: also called recombinant rat NIG
T5 sequence: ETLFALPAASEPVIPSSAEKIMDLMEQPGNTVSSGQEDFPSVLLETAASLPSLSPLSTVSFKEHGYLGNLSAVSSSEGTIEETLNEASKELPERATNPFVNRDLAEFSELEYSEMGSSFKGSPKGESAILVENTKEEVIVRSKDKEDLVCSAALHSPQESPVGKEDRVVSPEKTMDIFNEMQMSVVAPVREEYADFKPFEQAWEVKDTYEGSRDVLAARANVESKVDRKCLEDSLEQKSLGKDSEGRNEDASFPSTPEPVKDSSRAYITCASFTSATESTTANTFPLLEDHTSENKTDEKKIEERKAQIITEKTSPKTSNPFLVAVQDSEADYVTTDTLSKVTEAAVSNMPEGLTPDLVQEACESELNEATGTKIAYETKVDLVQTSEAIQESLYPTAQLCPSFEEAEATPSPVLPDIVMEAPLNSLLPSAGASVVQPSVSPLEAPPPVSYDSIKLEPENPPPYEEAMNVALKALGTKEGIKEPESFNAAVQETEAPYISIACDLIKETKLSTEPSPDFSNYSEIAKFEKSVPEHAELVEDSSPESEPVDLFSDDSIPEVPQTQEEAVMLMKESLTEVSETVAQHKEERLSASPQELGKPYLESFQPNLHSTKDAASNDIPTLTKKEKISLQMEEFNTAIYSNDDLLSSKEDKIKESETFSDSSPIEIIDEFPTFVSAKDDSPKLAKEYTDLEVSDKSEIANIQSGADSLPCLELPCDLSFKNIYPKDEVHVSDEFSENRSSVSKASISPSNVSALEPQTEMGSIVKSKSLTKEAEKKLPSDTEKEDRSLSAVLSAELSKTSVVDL
Described as above. As for the experimental part:
as §2, §3

The target of test [6] is T6, rat NogoA-623-640 (rat).
T6 construct: Free peptide used for preincubation with 11C7; also called immunogenic peptide
T6 peptide: SYDSIKLEPENPPPYEEA
In words: peptide competition of cell surface staining of living rat oligodendrocytes. As for the experimental part:
Immunocytochemistry: Optic nerve oligodendrocytes are prepared as described (Schwab, Caroni, 1988, Neuron). Three to five day-old cultures grown on poly-L-lysine coated coverslips are washed twice with PBS, fixed in 4% (w/v) paraformaldehyde (PFA), 5% (w/v) sucrose in PBS for 15 min at room temperature (RT) and non-specific binding is blocked with 10% (v/v) FCS. Cells were then incubated with mouse 11C7 (1:100). Secondary antibodies are goat-anti-mouse TRITC (Jackson ImmunoResearch Laboratories). For cell surface staining, two day-old rat optic nerve cultures are incubated with monoclonal antibody in medium for 25 min at RT. Secondary alkaline phosphatase conjugated antibodies (Milan Analytica, Lausanne) are used at 1:7,500 in 0.1 M maleic acid with 1% (w/v) blocking reagent (1 hr). The cultures are washed twice with maleic acid buffer, once with alkaline phosphatase buffer (0.1 M Tris-HCl pH 9.5, 0.1 M NaCl, 5 mM MgCl₂) and the staining is developed for 3 hrs at room temperature with 0.175 mg/ml BCIP (Sigma) and 0.338 mg/ml NBT (Sigma) in alkaline phosphatase buffer.
Cell surface staining is present on all major and small processes and on the cell body. Thus, the Nogo-A specific part of the molecule recognised by mouse 11C7 mAb is exposed to the extracellular space on the plasma membrane of oligodendrocytes.

Test [7] addresses T3, human NiG. In words: SPR (BIAcore 2000), NiG amine-coupled on CM5 chip, Fab injected. As for the experimental part:
as §2, §3

B1: mouse 11C7 mAb (antibody, V domains shown)
VH: EVKLLESGGGLVQPGGSLKLSCVVSGFDFRRNWMSWVRQAPGKGLEWIGEINPDSSKINYTPSLKDKFIISRDNAKNTLYLQVSTVRSEDTALYYCVRPVWMYAMDYWGQGTSVTVSS
VL: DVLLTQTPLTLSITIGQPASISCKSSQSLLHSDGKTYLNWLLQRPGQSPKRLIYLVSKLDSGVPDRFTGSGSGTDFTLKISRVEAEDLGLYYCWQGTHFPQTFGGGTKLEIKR
notes: also called mouse 11C7-IgG1; mAb 11C7
Take B1: the binding result is reported as “no binding (tested: 0.02 to 2.5 nM)” in test [1], “no binding (tested: 0.02 to 2.5 nM)” in test [2] and “binds” in test [6]. The figures for the Ka in test [3], in test [4] and in test [5] were 9.73e+09 M⁻¹, 5.2e+09 M⁻¹ and 2.25e+09 M⁻¹, respectively. Further, the dissociation constant Kd in test [3] turned out to be 0.103 nM; in test [4] it was 0.192 nM; in test [5], 0.444 nM. Besides, the koff in test [3] worked out at 4.6e-05 s⁻¹; in test [4] it was 0.000106 s⁻¹; in test [5] it was 0.000389 s⁻¹. Besides, the kon in test [3] came to 448000 M⁻¹ s⁻¹; in test [4], 552000 M⁻¹ s⁻¹; in test [5], 876000 M⁻¹ s⁻¹.

B2: 11C7 Fab (Fab, V domains shown)
VH: EVKLLESGGGLVQPGGSLKLSCVVSGFDFRRNWMSWVRQAPGKGLEWIGEINPDSSKINYTPSLKDKFIISRDNAKNTLYLQVSTVRSEDTALYYCVRPVWMYAMDYWGQGTSVTVSS
VL: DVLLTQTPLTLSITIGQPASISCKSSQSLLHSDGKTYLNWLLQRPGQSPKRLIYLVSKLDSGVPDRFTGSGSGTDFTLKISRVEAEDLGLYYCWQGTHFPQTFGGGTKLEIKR
notes: also called 11C7 derived monovalent Fab fragment; Fab monovalent fragment
As to B2, in test [1], the binding result is on record as “no binding (tested: 0.025 to 25 nM)”. Besides, the binding result in test [2] is recorded as “no binding (tested: 0.025 to 25 nM)”. In test [7], the Ka stood at 1.4e+08 M⁻¹, the Kd amounted to 7.14 nM, the koff was found to be 0.000528 s⁻¹ and the kon was 72900 M⁻¹ s⁻¹.

The Kd is a measure of binding affinity in units of concentration. High values mean weaker binding, low ones tighter binding. In general, koff refers to the rate constant with which the complex falls apart. A low value points to slow dissociation. A word on the kon: it is a measure of how fast the partners come together.
